Source: publication doi:10.1101/324590 (bioRxiv, 2018)

B4: mCHERRY-RIPK1(497-583) (domain or fragment, human, UniProt Q13546 497-583, looked up)
chain: MPSLHNIPVPETNYLGNTPTMPFSSLPPTDESIKYTIYNSTGIQIGAYNYMEIGGTSSSLLDSTNTNFKEEPAAKYQAIFDNTTSLT
B10: mCHERRY-M45(1-90WT) (domain or fragment, murine cytomegalovirus, UniProt Q06A28 1-90, looked up)
chain: MDRQPKVYSDPDNGFFFLDVPMPDDGQGGQQTATTAAGGAFGVGGGHSVPYVRIMNGVSGIQIGNHNAMSIASCWSPSYTDRRRRSYPKT
B12: His-Ub-M45(1-90) (domain or fragment, murine cytomegalovirus, UniProt Q06A28 1-90, looked up)
chain: MDRQPKVYSDPDNGFFFLDVPMPDDGQGGQQTATTAAGGAFGVGGGHSVPYVRIMNGVSGIQIGNHNAMSIASCWSPSYTDRRRRSYPKT
B13: ECFP-M45(1-90) (domain or fragment, murine cytomegalovirus, UniProt Q06A28 1-90, looked up)
chain: MDRQPKVYSDPDNGFFFLDVPMPDDGQGGQQTATTAAGGAFGVGGGHSVPYVRIMNGVSGIQIGNHNAMSIASCWSPSYTDRRRRSYPKT
B16: YPet-RIPK3(387-518) (domain or fragment, human, UniProt Q9Y572 387-518, looked up)
chain: TSSDSMAQPPQTPETSTFRNQMPSPTSTGTPSPGPRGNQGAERQGMNWSCRTPEPNPVTGRPLVNIYNCSGVQVGDNNYLTMQQTTALPTWGLAPSGKGRGLQHPPPVGSQEGPKDPEAWSRPQGWYNHSGK

What was measured:
[1] = target: the molecule itself; assay: sedimentation of insoluble material + transmission electron microscopy
His-Ub-RIPK3(387-518) = target: T1, His-Ub-RIPK3(387-518) (human, UniProt Q9Y572 387-518); assay: fluorescence polarisation
T1 sequence (looked up): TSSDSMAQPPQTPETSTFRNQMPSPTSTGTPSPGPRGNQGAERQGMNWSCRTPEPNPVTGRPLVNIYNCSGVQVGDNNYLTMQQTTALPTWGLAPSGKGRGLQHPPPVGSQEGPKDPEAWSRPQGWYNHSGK

His-Ub-M45(1-90) = target: B12; assay: fluorescence polarisation
His-Ub-RIPK1(497-583) = target: T2, His-Ub-RIPK1(497-583) (human, UniProt Q13546 497-583); assay: fluorescence polarisation
T2 sequence (looked up): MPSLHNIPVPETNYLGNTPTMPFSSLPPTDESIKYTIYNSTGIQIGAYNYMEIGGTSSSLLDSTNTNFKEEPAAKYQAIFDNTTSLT

SEC = target: the molecule itself; assay: SEC
[2] = target: the molecule itself; assay: thioflavin T fluorescence kinetics
YPet-RIPK3(387-518) [3] = target: B16; assay: single-molecule two-colour fluorescence coincidence spectroscopy
ECFP-M45(1-90) = target: B13; assay: confocal fluorescence microscopy of fibrils
mCHERRY-M45(1-90WT) = target: B10; assay: single-molecule two-colour fluorescence coincidence spectroscopy
mCHERRY-RIPK1(497-583) = target: B4; assay: as above
[4] = target: the molecule itself; assay: negative-stain transmission electron microscopy
[5] = target: the molecule itself; assay: transmission electron microscopy + thioflavin T fluorescence
[6] = target: the molecule itself; assay: confocal fluorescence microscopy of fibrils
[7] = target: the molecule itself; assay: single-molecule two-colour fluorescence coincidence spectroscopy
X-ray fibre diffraction = target: the molecule itself; assay: X-ray fibre diffraction
YPet-RIPK3(387-518) [8] = target: B16; assay: confocal fluorescence microscopy of fibrils
mCHERRY-RIPK3(387-518) = target: T3, mCHERRY-RIPK3(387-518) (human, UniProt Q9Y572 387-518); assay: single-molecule two-colour fluorescence coincidence spectroscopy
T3 sequence (looked up): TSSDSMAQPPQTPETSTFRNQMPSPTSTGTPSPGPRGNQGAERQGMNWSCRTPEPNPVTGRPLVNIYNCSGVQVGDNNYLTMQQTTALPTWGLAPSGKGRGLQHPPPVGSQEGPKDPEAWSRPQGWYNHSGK

B1: RIPK1(497-583) after removal of MBP with thrombin (domain or fragment, human, UniProt Q13546 497-583, looked up)
chain: MPSLHNIPVPETNYLGNTPTMPFSSLPPTDESIKYTIYNSTGIQIGAYNYMEIGGTSSSLLDSTNTNFKEEPAAKYQAIFDNTTSLT
binding result [1]: binds

B2: Alexa488-labelled RIPK1(497-583) (domain or fragment, human, UniProt Q13546 497-583, looked up)
chain: MPSLHNIPVPETNYLGNTPTMPFSSLPPTDESIKYTIYNSTGIQIGAYNYMEIGGTSSSLLDSTNTNFKEEPAAKYQAIFDNTTSLT
modifications: Alexa Fluor 488, covalent label, site not stated (degree of labelling 5%)
binding result (His-Ub-RIPK3(387-518)): binds
binding result (His-Ub-M45(1-90)): binds
binding result (His-Ub-RIPK1(497-583)): binds

B3: MBP-RIPK1(497-583) (domain or fragment, human, UniProt Q13546 497-583, looked up)
chain: MPSLHNIPVPETNYLGNTPTMPFSSLPPTDESIKYTIYNSTGIQIGAYNYMEIGGTSSSLLDSTNTNFKEEPAAKYQAIFDNTTSLT
binding result (SEC): binds

B4
binding result [2]: binds
binding result (YPet-RIPK3(387-518) [3]): binds
binding result (ECFP-M45(1-90)): binds

B5: YPet-RIPK1(497-583) (domain or fragment, human, UniProt Q13546 497-583, looked up)
chain: MPSLHNIPVPETNYLGNTPTMPFSSLPPTDESIKYTIYNSTGIQIGAYNYMEIGGTSSSLLDSTNTNFKEEPAAKYQAIFDNTTSLT
binding result (mCHERRY-M45(1-90WT)): binds
binding result (mCHERRY-RIPK1(497-583)): binds

B6: RIPK1(497-583) after removal of His6-ubiquitin (domain or fragment, human, UniProt Q13546 497-583, looked up)
chain: MPSLHNIPVPETNYLGNTPTMPFSSLPPTDESIKYTIYNSTGIQIGAYNYMEIGGTSSSLLDSTNTNFKEEPAAKYQAIFDNTTSLT
binding result [4]: binds

B7: synthetic peptide encompassing the RHIM of M45 (peptide)
peptide: VRIMNGVSGIQIGNHNAMS
binding result [5]: binds

B8: M45(1-90) after removal of MBP with thrombin (domain or fragment, murine cytomegalovirus, UniProt Q06A28 1-90, looked up)
chain: MDRQPKVYSDPDNGFFFLDVPMPDDGQGGQQTATTAAGGAFGVGGGHSVPYVRIMNGVSGIQIGNHNAMSIASCWSPSYTDRRRRSYPKT
binding result [1]: binds

B9: YPet-M45 (domain or fragment, murine cytomegalovirus, UniProt Q06A28 1-90, looked up)
chain: MDRQPKVYSDPDNGFFFLDVPMPDDGQGGQQTATTAAGGAFGVGGGHSVPYVRIMNGVSGIQIGNHNAMSIASCWSPSYTDRRRRSYPKT
binding result [6]: binds

B10
binding result [7]: binds
binding result (YPet-RIPK3(387-518) [3]): binds

B11: MBP-M45(1-90) (domain or fragment, murine cytomegalovirus, UniProt Q06A28 1-90, looked up)
chain: MDRQPKVYSDPDNGFFFLDVPMPDDGQGGQQTATTAAGGAFGVGGGHSVPYVRIMNGVSGIQIGNHNAMSIASCWSPSYTDRRRRSYPKT
binding result (SEC): binds

B12
binding result (X-ray fibre diffraction): binds

B13
binding result (YPet-RIPK3(387-518) [8]): binds

B14: M45(1-90) after removal of His6-ubiquitin (domain or fragment, murine cytomegalovirus, UniProt Q06A28 1-90, looked up)
chain: MDRQPKVYSDPDNGFFFLDVPMPDDGQGGQQTATTAAGGAFGVGGGHSVPYVRIMNGVSGIQIGNHNAMSIASCWSPSYTDRRRRSYPKT
binding result [4]: binds

B15: RIPK3(387-518) after removal of MBP with thrombin (domain or fragment, human, UniProt Q9Y572 387-518, looked up)
chain: TSSDSMAQPPQTPETSTFRNQMPSPTSTGTPSPGPRGNQGAERQGMNWSCRTPEPNPVTGRPLVNIYNCSGVQVGDNNYLTMQQTTALPTWGLAPSGKGRGLQHPPPVGSQEGPKDPEAWSRPQGWYNHSGK
binding result [1]: binds

B16
binding result (mCHERRY-RIPK3(387-518)): binds
